Source: publication PMC13486704 (2026)

Experiments:
[1] = target: HCMV protease (Human cytomegalovirus) (UniProt P16753); conditions: cited from earlier work
[2] = target: the molecule itself

| Molecule | Kd [1] [µM] | Kd [2] [µM] |
| --- | --- | --- |
| HCMV protease (from UniProt P16753) | 5.8 |  |
| HCMV protease (protein) MTMDEQQSQAVAPVYVGGFLARYDQSPDEAELLLPRDVVEHWLHAQGQGQPSLSVALPLNINHDDTAVVGHVAAMQSVRDGLFCLGCVTSPRFLEIVRRASEKSELVSRGPVSPLQPDKVVEFLSGSYAGLSLSSRRCDDVEAATSLSGSETTPFKHVALCSVGRRRGTLAVYGRDPEWVTQRFPDLTAADRDGLRAQWQRCGSTAVDASGDPFRSDSYGLLGNSVDALYIRERLPKLRYDKQLVGVTERESYVKA |  | ~70 |
